Source: publication PMC5061712

Columns and labels:
[1] = target: FtsX‐His (full‐length pneumococcal FtsX with a His6 tag) (Streptococcus pneumoniae); test: cross-linking; FtsX‐His (5–10 μmol/L) with glutaraldehyde (0.5–2.0 mmol/L), 30–45 min, room temperature, 50 mmol/L HEPES pH 8.0, 200 mmol/L NaCl, 5% glycerol, 0.02% DDM, 0.02% C12E8; SDS‐PAGE, Coomassie
[2] = target: FtsX‐His (full‐length pneumococcal FtsX with a His6 tag) (Streptococcus pneumoniae); test: cross-linking; FtsX‐His and FtsE‐His together in detergent micelles with glutaraldehyde; data not shown
[3] = target: FtsX‐His (full‐length pneumococcal FtsX with a His6 tag) (Streptococcus pneumoniae); test: densitometry of Coomassie‐stained bands of purified nanodiscs; FtsX‐His reconstituted in MSPE3D1/soybean lipid nanodiscs, purified by Ni‐NTA and SEC; relative intensities of MSPE3D1 and FtsX‐His bands, assuming two MSPE3D1 per nanodisc

## FtsX‐His (full‐length pneumococcal FtsX with a His6 tag) (natural protein)
[1]
  stoichiometry N: 2
[2]
  stoichiometry N: 2
[3]
  FtsX‐His molecules per nanodisc (molecules per nanodisc): 1.5
